Measurements: paper doi:10.64898/2025.12.08.692925

Experiments:
Assay in all cases: split reporter
[1] = molecular target: Tim23 mutant M4 fused to short YFP (S. cerevisiae) (UniProt P32897)
[2] = molecular target: Tim23 mutant M2 fused to short YFP (S. cerevisiae) (UniProt P32897)
[3] = molecular target: Tim23 mutant M1 fused to short YFP (S. cerevisiae) (UniProt P32897)

percent of fluorescent cells [1]: 9% | percent of fluorescent cells [2]: 7% | percent of fluorescent cells [3]: 4%
B1: Sfc1 fused to long YFP (natural protein)
chain: MSQKKKASHPAINLMAGGTAGLFEALCCHPLDTIKVRMQIYRRVAGIEHVKPPGFIKTGRTIYQKEGFLALYKGLGAVVIGIIPKMAIRFSSYEFYRTLLVNKESGIVSTGNTFVAGVGAGITEAVLVVNPMEVVKIRLQAQHLTPSEPNAGPKYNNAIHAAYTIVKEEGVSALYRGVSLTAARQATNQGANFTVYSKLKEFLQNYHQMDVLPSWETSCIGLISGAIGPFSNAPLDTIKTRLQKDKSISLEKQSGMKKIITIGAQLLKEEGFRALYKGITPRVMRVAPGQAVTFTVYEYVREHLENLGIFKKNDTPKPKPLK
